From patent US9675707B2, “Anti-TAT226 antibodies and immunoconjugates” (GENENTECH, INC., priority 2006, dated 2017)
Where a SMILES comes first, the peptide text is derived from it. [ ]: non-standard residue; d: D form. The star is where a group is joined. Dolaproine = CO[C@@H]([C@@H]1CCCN1)[C@@H](C)C(=O)O; Dil = CC[C@H](C)[C@H](NC)[C@@H](CC(=O)O)OC; X1 = C[C@@H](N*)[C@@H](O)c1ccccc1; NMeV = CN[C@H](C(=O)O)C(C)C

T1: TAT226 expressed on the surface of OVCAR3 (Homo sapiens, UniProt Q8N2G4)
T1 construct: TAT226 expressed on the surface of OVCAR3, a human ovarian cancer cell line; endogenous in cells; host or cells: OVCAR3
T1 sequence (Q8N2G4 21-117): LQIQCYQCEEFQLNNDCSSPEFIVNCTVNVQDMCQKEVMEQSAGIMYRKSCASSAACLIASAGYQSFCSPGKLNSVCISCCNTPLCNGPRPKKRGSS

T2: TAT226-His (Homo sapiens, UniProt Q8N2G4)
T2 construct: polyhistidine (C); made in house
T2 sequence (Q8N2G4 21-115): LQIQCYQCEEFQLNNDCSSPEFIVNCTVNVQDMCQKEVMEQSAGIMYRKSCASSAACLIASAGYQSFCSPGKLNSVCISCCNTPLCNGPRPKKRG


Key:
OVCAR3 cells = assay: OVCAR3 in vitro cell killing assay (CellTiter-Glo); type: cell-based, human; settings: 5 days of incubation
Experimental: YWO.49.H2 and YWO.49.H6 ADCs were tested for the ability to inhibit proliferation of OVCAR3 cells. OVCAR3 cells were seeded in 96-well plates in RPMI with 20% FBS. Anti-MUC16/CA25 antibody conjugated to MC-vc-PAB-MMAE was used as a positive control. MUC16/CA25 is a known ovarian cancer antigen. See, e.g., Yin et al. (2001) J. Biol. Chem. 276:27371-27375. Anti-IL-8 antibody conjugated to MC-vc-PAB-MMAE was used as a negative control. After 5 days of incubation, cell viability was measured using the CellTiter-Glo™ Luminescent Cell Viability Assay (Promega, Madison, Wis.) according to the manufacturer's instructions. The scale on the y-axis of FIG. 17 indicates the relative light units, or “RLUs,” from luciferase luminescence, which is a measure of cell viability.

[1] = test system: Untransfected HCT116 cells; assay: Sensitivity of untransfected HCT116 cells to free MMAE; type: cell-based, human; settings: untransfected HCT116 cells versus OVCAR3 cells
Experimental: (§1) YWO.49.H2 and YWO.49.H6 ADCs were tested for the ability to inhibit proliferation of HCT116 cells, a colon cancer cell line, which had been stably transfected with nucleic acid encoding human TAT226. Untransfected HCT116 cells are normally about 5-6 fold less sensitive to free (unconjugated) MMAE than OVCAR3 cells.

HCT116#9-4 cells = assay: In vitro cell killing assay using HCT116 transfected cells (CellTiter-Glo); type: cell-based, human; settings: 3 days of incubation
Experimental: as §1
Briefly, HCT116 cells were transfected as follows. Nucleic acid encoding epitope-tagged human TAT226 was constructed in the mammalian expression vector pcDNA3.1 (Invitrogen, Carlsbad, Calif.). The epitope tag consisted of amino acids 1-53 of the herpes simplex virus type 1 glycoprotein D (the “gD” tag), which replaced the signal sequence from amino acids 1-22 at the N-terminus of human TAT226. The recombinant vector was transfected into HCT116 cells using Lipofectamine200 (Invitrogen) according to the manufacturer's protocol. Transfected HCT116 cells were cultured in McCoy's 5a medium with 10% FBS and 0.4 mg/ml G418. Cells were stained using anti-gD antibodies and sorted by FACS to select for individual clones expressing recombinant gD:human TAT226 fusion protein. […]
To perform the cell killing assay, HCT116#9-4 cells were seeded in 96-well plates. […] After 3 days of incubation, cell viability was measured using the CellTiter-Glo™ Luminescent Cell Viability Assay (Promega, Madison, Wis.) according to the manufacturer's instructions.

[2] = target: T1, TAT226 expressed on the surface of OVCAR3; assay: FACS binding to TAT226 expressed on the surface of OVCAR3 cells; settings: 5 μg/ml primary antibody, 1 hour on ice
Experimental: The ability of anti-TAT226 antibodies to bind to TAT226 expressed on the surface of OVCAR3, a human ovarian cancer cell line, was examined. Fluorescence-activated cell sorting (FACS) was performed on OVCAR3 cells in the absence and in the presence of YWO.49, YWO.49.B7, YWO.49.C9, YWO.49.H2, or YWO.49.H6. Briefly, detached cells were incubated with 5 μg/ml primary antibody for 1 hour on ice, washed, and incubated with secondary antibody (anti-human IgG conjugated to phycoerythrin) for 30 minutes on ice. FACS was performed using a FACScan™ flow cytometer (BD Biosciences, San Jose, Calif.).
The peaks on the left side of each graph represent “background” binding, i.e., binding of secondary antibody only. The peaks on the right side of each graph represent binding of the indicated anti-TAT226 antibody.

TAT226-His = target: T2, TAT226-His; assay: Binding affinity for recombinant antigen by surface plasmon resonance (BIACORE 3000); settings: immobilized antibody, TAT226-His 0.7 nM to 500 nM, 25° C., one-to-one Langmuir model; for kon/10^5: association rate; for koff/10^−4: dissociation rate
Experimental: The binding affinity of YWO.49, YWO.49.B7, YWO.49.C9, YWO.49.H2, and YWO.49.H6 for recombinant antigen was determined by surface plasmon resonance measurement using a BIACORE® 3000 system (Biacore, Inc., Piscataway, N.J.). Briefly, carboxymethylated dextran biosensor chips (CMS, Biacore Inc.) were activated with N-ethyl-N′-(3-dimethylaminopropyl)-carbodiimide hydrochloride (EDC) and N-hydroxysuccinimide (NHS) according to the supplier's instructions. Anti-TAT226 antibody was diluted to 5 ug/ml with 10 mM sodium acetate, pH 4.8, before injection at a flow rate of 5 ul/minute to achieve approximately 500 response units (RU) of coupled antibody. Next, 1M ethanolamine was injected to block unreacted groups. For kinetics measurements, two-fold serial dilutions of TAT226-His (0.7 nM to 500 nM) were injected in PBS with 0.05% Tween 20 at 25° C. at a flow rate of 25 μl/min. Association rates (kon) and dissociation rates (koff) were calculated using a simple one-to-one Langmuir binding model (BIAevaluation Software version 3.2). The equilibrium dissociation constant (Kd) was calculated as the ratio koff/kon.

kon/10^5 (TAT226-His)	koff/10^−4 (TAT226-His)	Molecule	IC50 (OVCAR3 cells) [pM]	fold less sensitive than OVCAR3 cells [1]	IC50 (HCT116#9-4 cells) [pM]	binding to OVCAR3 cells by FACS [2]
0.27	<0.05	YWO.49.B7: affinity matured anti-TAT226 antibody derived from YWO.49, reformatted as full-length IgG (antibody, V domains shown) VH: EVQLVESGGGLVQPGGSLRLSCAASGFTITNYGIHWVRQAPGKGLEWVGRIYPDSGATYYADSVKGRFTISADTSKNTAYLQMNSLRAEDTAVYYCARKLWVSLAAMDYWGQGTLVTVSS VL: DIQMTQSPSSLSASVGDRVTITCRASQDVSTAVAWYQQKPGKAPKLLIYSASFLYSGVPSRFSGSGSGTDFTLTISSLQPEDFATYYCQRSVFTPPAFGQGTKVEIKR				did not bind significantly
0.22		YWO.49.H2: affinity matured anti-TAT226 antibody derived from YWO.49, reformatted as full-length IgG (antibody, V domains shown) VH: EVQLVESGGGLVQPGGSLRLSCAASGFTITNYGIHWVRQAPGKGLEWVGRIYPDSGATYYADSVKGRFTISADTSKNTAYLQMNSLRAEDTAVYYCARKLWVSLAPMDYWGQGTLVTVSS VL: DIQMTQSPSSLSASVGDRVTITCRASQDVSTAVAWYQQKPGKAPKLLIYSASFLYSGVPSRFSGSGSGTDFTLTISSLQPEDFATYYCQQSYGTPFIFGQGTKVEIKR				

Second part, the molecule before the results:

Molecule	kon/10^5 (TAT226-His)	koff/10^−4 (TAT226-His)	IC50 (OVCAR3 cells) [pM]	fold less sensitive than OVCAR3 cells [1]	IC50 (HCT116#9-4 cells) [pM]	binding to OVCAR3 cells by FACS [2]
CC[C@H](C)[C@@H]([C@@H](CC(=O)N1CCC[C@H]1[C@H](OC)[C@@H](C)C(=O)N[C@H](C)[C@@H](O)c1ccccc1)OC)N(C)C(=O)[C@@H](NC(=O)[C@@H](NC)C(C)C)C(C)C [free MMAE, mono-methyl auristatin E] (H-[NMeV]V[Dil][Dolaproine]-X1)			~100	5-6 fold	~900	
YWO.49.H6: affinity matured anti-TAT226 antibody derived from YWO.49, reformatted as full-length IgG (antibody, V domains shown) VH: EVQLVESGGGLVQPGGSLRLSCAASGFTITNYGIHWVRQAPGKGLEWVGRIYPDSGATYYADSVKGRFTISADTSKNTAYLQMNSLRAEDTAVYYCARKLWISIAGMDYWGQGTLVTVSS VL: DIQMTQSPSSLSASVGDRVTITCRASQDVSTAVAWYQQKPGKAPKLLIYSASFLYSGVPSRFSGSGSGTDFTLTISSLQPEDFATYYCQHSYATPFTFGQGTKVEIKR	1.86	0.09				
YWO.49.C9: affinity matured anti-TAT226 antibody derived from YWO.49, reformatted as full-length IgG (antibody, V domains shown) VH: EVQLVESGGGLVQPGGSLRLSCAASGFTITNYGIHWVRQAPGKGLEWVGRIYPDSGATYYADSVKGRFTISADTSKNTAYLQMNSLRAEDTAVYYCARKLWVTLASMDYWGQGTLVTVSS VL: DIQMTQSPSSLSASVGDRVTITCRASQDVSTAVAWYQQKPGKAPKLLIYSASFLYSGVPSRFSGSGSGTDFTLTISSLQPEDFATYYCQKSYNTPPTFGQGTKVEIKR	1.53	<0.05				comparable to that observed for YWO.49.H2 and YWO.H6
